Experiment: yeast display, Sf9 membrane polyspecificity reagent, FACS + sequencing; frameworks hold sequencing errors
Summary of the method: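 Polyreactivity labels are assigned by the sorting gate from which each nanobody was recovered. The gates were low and high (top ~1%), set on anti-HA fluorescence for expression and streptavidin fluorescence for reagent binding. Before sorting, galactose-induced (36–48 hours) yeast display cells were stained for 1 hour at 4 °C with 10% biotinylated, detergent-solubilized Sf9 membrane reagent.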

QVQLVESGGGLVQAGGTLRLSCAASGVIFKVYGMRWYRQAPGKERELVAAISWTTGGTYYADSVKGRFTISRDNAKNTVYLQMNSLKPEDTAVYYCNAPSWYYSGVRYDYWGQGTQVTVSS
polyreactivity (PSR sort gate): high polyreactivity

QVQLVESGGGLVQAGGSLRLSCAASGSTFAAYAMGWYRQAPGKERELVAAISATGGSTYYADSVKGRFTISRDNAKNTVYLQMNRLKPEDTAVYYCAADYPSWYGYRYYYWGQGTQVTVSS
polyreactivity (PSR sort gate): high polyreactivity

QVQLVESGGGLVQAGGSLRLSCAASGGIFRKNAMGWYRQAPGKERELVAAISWDGDNTYADSVKGRFTISRDNAKNTVYLQMNSLKPEDTAVYYCAAETFTDYDYWGQGTQVTVSS
polyreactivity (PSR sort gate): high polyreactivity

QVQLVESGGGLVQAGGSLRLSCDASGRIISYNAMGWYRQAPGKERELVAAISWGGGSTYYADSVKGRFTISRDNAKNTVYLQMNSLKPEDTAVYYCAKGWYRIKRNDYWGQGTQVTVSS
polyreactivity (PSR sort gate): low polyreactivity

QVQLVESGGGLVQEGGSLRLSCAASGSTFYSNAMGWYRQARGKEREFLAAISWSGGSTYYADSVKGRFTISRDNAKNTVYFQMNSLKPEDTAVYYCAKKPYYYAFCGYGYWGQGSQVTVSS
polyreactivity (PSR sort gate): high polyreactivity

QVQLVESGGGLVQAGGSLRLSCAASGIIFRYYVMGWYRQAPGKERELVADITSGGSTYYADSVKGRFTISRDNEKNTVYLQMNSLKPEDTAVYYCAADYQYDWFYYWGQGTQVTVSS
polyreactivity (PSR sort gate): high polyreactivity

QVQLVESGVGLVQAGGSLRLSCAASGFTFQQYAMAWYRQAPGKERELVASISSSGGSTYYADSVKGRFTISRDNAKNTVYLQMNSLKPEDTAVYYCNARSWVRRYIYYYWGQGTQVTVSS
polyreactivity (PSR sort gate): high polyreactivity

QVQLVESGGGLVQAGGSLRLSCAASGSTFGRYAMGWYRQAPGKERELVAAITSDTGNTNYADSVKGRFTISRDNAKNTVYLQMNSLKPEDTAVYYCAAATFWVLWGHVIGNYDSWGQGTQVTVSS
polyreactivity (PSR sort gate): low polyreactivity

QVQLLESGGGLVQAGGSLRLSCAASGSTFYSYAMGGYRQAPGKERELVAAISSSSGSTYYADSVKGRFTISRDNANNSVYLQMNSLKPEDTAVYYCNRGRRYSHKYDYWGQGTQVTVSS
polyreactivity (PSR sort gate): high polyreactivity

QVQLVESGGGLVQAGGSLRLSCAASGRTFRIYALGWYRQAPGTERELVATIDSGGSTNYADSVKGRFTISRDNAKNTVYFQMNSLKPEDTAVYYCNAEDKPWYYLAGQAEYDSWGQGTQVTVSS
polyreactivity (PSR sort gate): low polyreactivity

QVQLVESGGGLVQAGGSLRLSCAASGLTFDYYAMGWYRQAPGKERELVAAIDWSGGSTYYADSVKGRFTISRDNAKNTVYLQMNSLKPEDTAVYYCATESDDSGMDYWGQGTQVTVSS
polyreactivity (PSR sort gate): low polyreactivity

QVQLVESGVGLVQAGGSLRLICAASGITFSGYDMVWYRQAPWKERELVAAISGSGTSTYYADSEKGRFTISRDKAKNTVYLQMNSLKPEDTAVYYCAARDAIFGSDYWGQGTQVTVSS
polyreactivity (PSR sort gate): high polyreactivity

QVQLVESGGGLVQAGGSLRLSCAASGITFVFYAMGWYRQAPGKERELVATISYRGTSTYYADSVKGRFTISRDNAKNTVYLQMNSLKPEDTAVYYCAADTYIYYKTGYGYWGQGTQVTVSS
polyreactivity (PSR sort gate): low polyreactivity

QVQLVETGGGLVQAGGILRLSCAASGRIFGYNTMGWYRQAPGKERELVARISYDVDSTYYADSVKGRFTISRDNAKNTVYLQMNSLKPEDTAVYYCNARRSNLGSYIEYFGFDYWGQGTQVTVSS
polyreactivity (PSR sort gate): low polyreactivity

QVQLVESGGGLVQAGGSLRLSCAASGRIFTYYGMGWSRQAPGKEMELVAAISSSGDSTFYADSVKGRFTISRDNAKNTVYLQMNSLKPEDTAVYYCAADYYYVWYDYWGQGTQVTVSS
polyreactivity (PSR sort gate): low polyreactivity

QVKLVESVGALVQAGGSHRLSCAASGNTFPWYVLGWYRHATGKERELLAAITSSGSTTYYADSVKGRFTISRDNAKNTVYLQMNSLKPDDNAVYYCAARNYGPYDYWGPGTQVTVSS
polyreactivity (PSR sort gate): low polyreactivity

QVQIVESGGGLVQAGGSLRLSCAASGNTISYYDMGWYRQAPGKERELVADISSGGSTYYADSLKGRFTISRDNAKNTVYLQMNSLKPEDTAVYYCNAVVYIRGTAGTYYYWGQGTQVTVSS
polyreactivity (PSR sort gate): high polyreactivity

QVQLVESGGGLVQAGGSLRLSCAASGRIFRRNAMGWYRQAPGKERELVAAITSSGGNTYYADSVKGRFTISRDNAKNTVYLQMNSLKPEDTAVYYCAAELRPYITYDGPRKKFYYWGQGTQVTVSS
polyreactivity (PSR sort gate): high polyreactivity

QVQLVESGGGLVQAGGSLRLSCAASGRTFIRNAMGWYRQAPGKERELVAAITRSGGSTYYADSVKGRFTISRDNAKNTVYFQMNSLKPEDTAVYYCAAQPFYYLVGVPDDYWGQGTHVTVSS
polyreactivity (PSR sort gate): low polyreactivity

QVHLEESGRRLVQAGGSLRLSCAASGSIFSYYAMGWSRPAPGKEWELVAAISQSGGSTYYADSVKGRFTISGDNAKNTVDLQMNSLKPEDTAVYSCNAVARHTRAKYGSWGQGTQVTVSS
polyreactivity (PSR sort gate): low polyreactivity

QVQLLESGGGLVQEGGSLRLSCAASGSIFEWYVMGWYRQAPGKERELVDTITSDCSSNYADSVKGRFTISRDNAKNTVYLQMNSLKPEDSAVYYCARDWRWDAWTRRGNDDGYWGQGTQVTVSS
polyreactivity (PSR sort gate): low polyreactivity

QVQLVESGGGLVQAGGSLRLSCAASGFTLYYYAMGWYRQAPGKERELVAAISYSGGTTYYADSVKGRFTISRDNAKYTVSLQMNSLKPEDTAVYYCAAEVGGYWADEYLGYDYWGQGTQVTVSS
polyreactivity (PSR sort gate): low polyreactivity

QVQLVESGGGLVQAGGSLRLSCAASGSTILVNAMGWYRQAPGKERELVAAISRGGSTYYADSVKGRFTISRDNAKNTVYLQMTSLKPEDTAVSYCAARGVYVKYYYWGQGTQVTVSS
polyreactivity (PSR sort gate): high polyreactivity

QVQLVESGGGLVQAGGSLRLSCAASGFIFDNNAMGWYRQAPGKEREFVAAISGSGGSTYYADSVKGRFTISRDNAKNTVYLQMNSLKPEDTAVYYCAAPIPDYTYIYPAYDDYWGQGTQVTVSS
polyreactivity (PSR sort gate): low polyreactivity

QVQLVESGGGLFQAGGSLRLSCAASGFNFDSNVMGWYRQAPGKERELVAAITGDDTTYYADSVKGRFTISRDNAKNTVYLQMNSLKPEDTAVYYCAADETESLEYTAYDMYYWGQGTQVTVSS
polyreactivity (PSR sort gate): low polyreactivity

QVQLVESWGGLVQAGGSLRLSCAASGSTISANALGWDRQAPGTEREWVASISRRGGSPYYADSVKGRFTISRDKATNTVYLQMNSLKPEDTAVYYSGAVFRYYARTFDYWGQGTQVSVSS
polyreactivity (PSR sort gate): high polyreactivity

QVQLVESGGGLVQAGGSLRLSCAASGSTFYQYSMGLYRQAHVKEREFVAAITTIGGLTFYADSVKGRFTISRDNAKNTVYLQMHSLKPEDTAVYYCAAGYRAWDPYGHYGYWGQGTQVTVSS
polyreactivity (PSR sort gate): high polyreactivity

QVHLVESGGGLVQAGGSLRLSLAASGRIFGGYAMGWYRQAPGKERELVAGITNTGDTYYADSVKGRFTISRDNAKNNVYLQMNSLKPEDTAVYYCNAEGDKRRDRYDYWGQGTQVTVSS
polyreactivity (PSR sort gate): low polyreactivity

QFQLVESGVGLVQAGGSLRLSCAASGFTFWYYAMGWYRQAPGKERELVARITSRAADTYADSVKGRFTISRDNAKNTVYLQMNSLKPEDTAVYYCNAEFGRARDDDYSGQGTQVTVSS
polyreactivity (PSR sort gate): low polyreactivity

QVQLVESGGGLVQAGGSLRLSCAASGITFDNYAMGWYRQAPGKEWELVAAISSDDNTTYADSVKGRFTISRDNAKNTVYLQMNSLKPEDTAVYYCAADSRIYGYWEYDYWGQGTQVTVST
polyreactivity (PSR sort gate): low polyreactivity

QVQLVESGGGLDQAGGSLRLSCAASGSTFRFNAMGWYRQAPGKEREFVAAIRFTGGSSYYSDSVKGRFTISRDNAKNTVYLQMNSLKPDDTAVYYCNNADEYSTVEYDYWGQGTLVTVSS
polyreactivity (PSR sort gate): low polyreactivity

QVQLVESGGGLVQAGGSLRLSCAASGRTFRRNAMGWYRQAPGKERELVAAISWSGSRTYYADSVKGRFTISRDNAKKTVYLQMNSLKPEDTAVYYCAAEVWSTQGSATVQYDYLGQGTQVTVSS
polyreactivity (PSR sort gate): high polyreactivity

QVQLVESGGGLVQAGGSLRISCAASGSIFPRYAMGWYRQAPGTERELVATISASGTDTYYADSVKGRFTISRDNAKNTVYLQMNSLKPEDTAVYYCAAGGYPGGEDYWGQGTQVTVSS
polyreactivity (PSR sort gate): low polyreactivity

QLQLVESGGGLVQAGGSLRLSCAASGSIIGYYAMGWYRQAHGKERELVAAITASGGSTYYADSVKGRFTISRDNAKNTVYLQMNILKPEDTAVYYCAAGTHTDYGRYYYWGQGTQVTVSS
polyreactivity (PSR sort gate): low polyreactivity

QVQLVESGGGLVQAGGSLRLSCAASGRIFFTYVMGWYRQAPGKERELVATIRVSGGSTYYADSVKGRFTISRDNAKNTVYLQMNSLKPEDTAVYYCAASGASWSLHYAGDYWGQGTQVTVSS
polyreactivity (PSR sort gate): high polyreactivity

QVQLVESGGGLVQAGGSLRLSCADSGSILGNAMVWYRQAPGKERELVAAITRGVSTYYADSVKGRFTISRDNAKNTVYLQMNSLKPEDTAVYYCYKTYVRGVHGVYLPITSYDYWGQGTQVTVSS
polyreactivity (PSR sort gate): low polyreactivity

QVQLVESGGGLVQAGGSLRLSCAASGRTFSVNAMGWYRQAPGKERELVAAISWDGGSTYYADSVKGRFTISRDNAKNSVYLQMNSLKPEDTAVYYCNKDLYYAYDYWGQGTQVTVSS
polyreactivity (PSR sort gate): low polyreactivity

QVQLVESGGGLVQAGGSLRLSCAPSGSTFLSYVMGWYRQAPGKERELVAAITGTGGRTYYADSVKGRFTISRDNAKNTVYLQMNCLKTEDTAVYYCTAYRNHGYDYWGQGTQVTVSS
polyreactivity (PSR sort gate): high polyreactivity

QVQLVESGGGLVQAGGSLRLSCAASGSTFTLNAMGWYRQAPGKERELVARISSGGGSTYYADSVNGRFTISRDNAKNTVYLQMNSLKPEDTAVYYCNAGNYRDKSYYWGQGTQVTVSS
polyreactivity (PSR sort gate): low polyreactivity

QVQLVESGGGLVQAGGSLRLSCAASGRTFYFYTMGWYRQAPGKERELVAAITSGGSTNYADSVKGRFTISRDNAKNTVYLQMNSLKPEDTAVYYCAAIYYRVYGYGLRMYYWGQGTQVTVSS
polyreactivity (PSR sort gate): high polyreactivity

QVQLQESGAGLVQAGGSLRLTCAASGSIFLFYTMGWYRQAPVKEREFVAGITLGTTTYNADSVKGRFTISRDNVKNTVYLQMNSLKPEDTAVYYCAVAVGHYTEFWYWGQGTQVTMSS
polyreactivity (PSR sort gate): high polyreactivity

QVQLVESGGGLVQAGGILRLICADSGSTFAQYAMGWYRPAPGKERELVAAISRLGASTYYAYSVKGRFTISRDIAKNTVYLQMNSLKPEDTVVYYCNAVRGEKMGYWGQGTQVTVSS
polyreactivity (PSR sort gate): high polyreactivity

QGQLVESGGGLVQAGGSLRLSCAASGSIFDTYAMGWYRQAPGKERELVAAITRRAGSTYYADSVKGRFTISRDHAKNTLYFQMNSLKPEETSVYYCAAGYDRYPGGIDEYWGQGTQVTVSS
polyreactivity (PSR sort gate): low polyreactivity

Source: the nanobody polyreactivity screen of Harvey et al. (2022)
